Assay in all cases: cell-based or functional assay
The target in assay [1] is CSF-1R of cynomolgous monocytes (cynomolgous).
Assay [2] has as its target human mutant CSF-1R L301S Y969F, on cells (human) (UniProt P07333).
Assay [3] addresses human wildtype CSF-1R (wt CSF-1R), full-length, on cells (human) (UniProt P07333).

The source of these data is patent US20110165156A1.

Bounds are passed on as bounds.

In assay [1], “Anti CSF-1R SC 2-4A5 (Santa Cruz Biotechnology, US) (antibody)” returned a % inhibition (of survival) = (100% - % survival) of 69% and a % survival (cynomolgous monocytes, 5 µg/ml antibody) of 31%. In assay [2], the Mutant CSF-1R IC30 (cell viability, 3D culture, CellTiterGlo) was 2.56 µg/mL and the Mutant CSF-1R IC50 (cell viability, 3D culture, CellTiterGlo) is 10 µg/mL. In assay [3], this substance yielded a wtCSF-1R IC30 (cell viability, 3D culture, CellTiterGlo) of 16.6 µg/mL and a wtCSF-1R IC50 (cell viability, 3D culture, CellTiterGlo) of 10 µg/mL.

One may read the % inhibition as how much of the control response was suppressed. In assay [2], “goat polyclonal anti-CSF-1R antibody ab10676 (abcam)” returned a % inhibition at 20 µg/ml, mutant CSF-1R cells of 0% and a Mutant CSF-1R IC30 (cell viability, 3D culture, CellTiterGlo) of over 20 µg/mL. Also, in assay [3], the wtCSF-1R IC30 (cell viability, 3D culture, CellTiterGlo) came to 14.2 µg/mL.
